# Target: HA-DGAT2 (hemagglutinin-tagged tung tree DGAT2) (Vernicia fordii (tung tree)) (UniProt Q0QJH9)
# Test: SDS-PAGE and immunoblotting of microsomal membranes
substance,measurement,value
HA-DGAT2 (hemagglutinin-tagged tung tree DGAT2) (from UniProt Q0QJH9 2-322) (enzyme),stoichiometry N,2

# Reference: paper PMC11338361
